Experiment: yeast display, Sf9 membrane polyspecificity reagent, FACS + sequencing; frameworks hold sequencing errors
Procedure, shortened: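 Sorting gates, low and high (top ~1%), were placed on anti-HA fluorescence to track expression and on streptavidin fluorescence to track reagent binding. A clone's polyreactivity label is taken from the gate it came out of. The reagent was 10% biotinylated, detergent-solubilized Sf9 membrane, applied for 1 hour at 4 °C to galactose-induced yeast display cells.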

Sequence | polyreactivity (PSR sort gate)
QVQLVESGGGLVQAGGSLRLSCAASGRTFRLYAMGWYRQAPGKERELVADITTGGGSTYYADSVKGRFTISRDNAKNTVYLQMNSLKPEDTAVYYCAAEQDTVWFLWIVDYWGQGTQVTVSS | low polyreactivity
QVQLVESGGGLVQAGGSLRLSCAASGRTFRNNAMGWYRQAPGKERELDAAIKGSGGSTYYADSVKGRFTISRDNAKNTVYLQMNSLKPEDTAVYYCAKAVVPWGPNFRPNHTRGYYWGQGTQATVSS | low polyreactivity
QVQLVESGGGLVQAGGSLRLSCAASGRTFRNYAMGWYRQAPGKEREFVAAITGRGGSTYYADSVKGRFTISRDNAKNTVYLQMNSLKPEDTAVYYCAAVSGRTGQRTYYPYYYWGQGTQVTVSS | high polyreactivity
QVQLVESGGGLVQAGGSLRLSCAASGRTFRPNAMGWYRQAPGNERELVASITRRGGTTYYADSVKGGFTISRDNAKNTVYLHMNSLKPEDTAVYYCNAPPGYSSTRNGYWGQGTQVTVSS | high polyreactivity
QVQLVESGGGLVQAGGSLRLSCAASGRTFRPYAMGWYRQAPGKEMELVAAIDSSGTSTYYADSVKGRFTISRDTAKNTVYLQMNSLKPEDTAVYYCAKAWPDHWYSRYDYWGQGTQLTVSS | low polyreactivity
QVQLVESGGGLVQAGGSLRLSCAASGRTFRPYAMGWYRQAPGKERDLVAAIDSSGTSTYYADSVKGRFTISRDNAKKTVYLKMNSLKPEDTAVYYCAKAWPDHWYSRYDYWGQGTQVTVSS | low polyreactivity
QVQLVESGGGLVQAGGSLRLSCAASGRTFRPYAMGWYRQAPGKERELVAAISSRGSSTYYADSVKGRFTISRDNAKNTVYLQMNSLKPEDTAFYYCAAEGSVGLYGLIMHYWGQGTQVTVSS | high polyreactivity
QVQLVESGGGLVQAGGSLRLSCAASGRTFRPYAMGWYRQAPGKERELVAAISYRGGITNYADSVKGRFTISRDNAKNTVYLQMNSLKPEDTAVYYCNRYAIWVSRFSDLDYWGQGTQVTVSS | low polyreactivity
QVQLVESGGGLVQAGGSLRLSCAASGRTFRQYAMGWYRQAPGKERELVAAIRTNGGRTYYADSVKGRFTISRDNAKNTVYLQMNSLKPEDTAVYYCAVYDVVQGVLFDYWGQGTQVTVSS | high polyreactivity
QVQLVESGGGLVQAGGSLRLSCAASGRTFRRNVMGWYRQAPGKERELVAAISTRGGDTYYADSVKGRFTISRDNAKNTVYLQMNSLKPEDTAVYYCAAEYTYGYDYWGQGTQVTVSS | high polyreactivity
QVQLVESGGGLVQAGGSLRLSCAASGRTFRRYAMGLYRQAPGKERELVASISTSGGSTYADSVKGRFTISRDNAKNTVYLQMNSLKPEDTAVYYCAVRSPRYVRNGDYWGQGTQVTVSS | high polyreactivity
QVQLVESGGGLVQAGGSLRLSCAASGRTFRRYAMGWYRQAPGKEREFVAAIRYSGGITYYADSVKGRFTISRDNAKNTVYLQMNSLKPEDTAVYYCAAYGWGNRWYSRFDYWGQGTQVTVSS | high polyreactivity
QVQLVESGGGLVQAGGSLRLSCAASGRTFRRYAMGWYRQAPGKERELVAAISRTGSTNNYADSVKGRFTISRDNAKNTVYLQMNSLIPEDTAVYYCKRQHNLGYGYDYWGQGTQVTVSS | high polyreactivity
QVQLVESGGGLVQAGGSLRLSCAASGRTFRRYAMGWYRQAPGKERELVAAITNRGASTYYADSVKGRFTISRDNAKNTVYLQMNSLKPEDTAVYFCNTDPVSGLVWKGTEYDYWGQGTQVTVSS | low polyreactivity
QVQLVESGGGLVQAGGSLRLSCAASGRTFRRYAMGWYRQAPGKERELVAAITSGGDTYYADSVKGRFTISRDNAKNTVYLQMNSLKPEDTAVYYCNAASVTRRTGIRAVDFDYWGQGTQVTVSS | high polyreactivity
QVQLVESGGGLVQAGGSLRLSCAASGRTFRRYAMGWYRQAPGKERELVASISTSGGSTYADSVKGRFTISRDNAKNTVYLQMNSLKPEDTAVYYCAVRSPRYVRNGDYWGQGTQVTVSS | high polyreactivity
QVQLVESGGGLVQAGGSLRLSCAASGRTFRSDNAMGWYRQAPGKERELVAAISQGGGTYYADSVKGRFTISRDNAKNTVYLQMNSLKPEDTAVSYCARDAYYADPSLWYYTYDYWGQCTQVTVSS | low polyreactivity
QVQLVESGGGLVQAGGSLRLSCAASGRTFRSYAMGRYRQAPGKVRELVAAISYGGGSTYYADSVKGRFTISRDNAKNTVYLQMNSLKPEDTAVYYCAAAGNKRGGYDYWGQGTQVTVSS | high polyreactivity
QVQLVESGGGLVQAGGSLRLSCAASGRTFRTNDMGWYRQAPGKERELVAAISRGGGSTYYADSVKGRFTISRDNAKNTVYLQMNSLKPEDTAVYYCNALRNGIAFGAMDYWGQGTQVTVSS | high polyreactivity
QVQLVESGGGLVQAGGSLRLSCAASGRTFRTYAMGWYRQAPGKERELVAAISRTGRTNYADSVKGRFTISRDNAKNTVYLQMNSLKPEDTAVYYCAADRVGWSGYRGDYWGQGTQVTVSS | high polyreactivity
QVQLVESGGGLVQAGGSLRLSCAASGRTFRTYTMGWYRQAPGKEREFVAAINKSGGTTNYADSVKGRFTISRDNAKNTVYLQMNSLKPEDTAVYYCAKRGRSTYGYDYWGQGTQVTVSS | high polyreactivity

Sequence | polyreactivity (PSR sort gate)
QVQLVESGGGLVQAGGSLRLSCAASGRTFRTYTMGWYRQAPGKERELVAAISRGGSTNYADSVKGRFTISRDNAKNTVYLQMNSLKPEYTAVYYCNAKASFWSPYDDWGQGTQVTVSS | high polyreactivity
QVQLVESGGGLVQAGGSLRLSCAASGRTFRTYTMGWYRQAPGKERELVATISWSGGSTNYADSVKGRFTISRDNAKNTVYLQMNSLKPEDTAVYYCNAYVSPRYRGSRYYYWGQGTQVTVSS | high polyreactivity
QVQLVESGGGLVQAGGSLRLSCAASGRTFRVYAMGWYRQAPGKERELVAAITGSGDSTYYADSVKGRFTISRDNAKYTVYLQMNSLKPEDTAVYYCNAVYRSTFDYWGQGTQVTVSS | high polyreactivity
QVQLVESGGGLVQAGGSLRLSCAASGRTFRVYAMGWYRQAPGKERELVAAITRGGSTYYADSVKGRFTISRDNAKNTVYLQMNSLKPEDTAVYYCAADVLRTQPIGWYSHSPLEYWGQGTQVTVSS | high polyreactivity
QVQLVESGGGLVQAGGSLRLSCAASGRTFRWYAMGWYRQAPGKERELVASITWSGGSTYYADSVKGRFTISRDNAKNTVYLQMNSLKPEDTAVYYCNRVLVVSMYEGNYWGQGTQVTVSS | high polyreactivity
QVQLVESGGGLVQAGGSLRLSCAASGRTFRYNAMGWYRQAPGKERELVAAITYSGGTTYADSVKGRFTISRDNAKNTVYLQMNSLKPEDTAGYYCAARGYVWNIGRYYWGQGTQVTVSS | high polyreactivity
QVQLVESGGGLVQAGGSLRLSCAASGRTFRYNAMGWYRQAPGKERELVAGIRWSGDRTYYADSVKGRFTISRDNAKNTVYLQMNSLKPEDTAVYYCNKVYHPGYGVRATYDYWGQGTQVTVSS | high polyreactivity
QVQLVESGGGLVQAGGSLRLSCAASGRTFRYNAMGWYRQAPGKERELVAGITYYGGSTSYADSVKGRFTISRDNAKNTVYLQMNSLKPEDTEVYYCNVVYNYYGRFGSWGQGTQVTVSS | high polyreactivity
QVQLVESGGGLVQAGGSLRLSCAASGRTFRYNAMGWYRQAPGKERELVARITVIGDSTYYADSVKGRFTISRDNAKNTVYLQMNSLKPEDTAVYYCAAVSRRVSPYLSARDYWGQGTQVTVSS | high polyreactivity
QVQLVESGGGLVQAGGSLRLSCAASGRTFRYNAMGWYRQAPGKERELVASITYRGGSTYYADSVKGRFTISRDNAKNTVYLQMNSLKPEDTGVYYCATSVYSRPRKPRYYYWGQGTQVTVSS | high polyreactivity
QVQLVESGGGLVQAGGSLRLSCAASGRTFRYNDMGWYRQAPGKERELVAAITYTADRTYYADSVKGRFTISRDNAKNTVYLQMNSLKPEDTAVYYCNAAYGRRVTFRPYYWGQGTQVTVSS | high polyreactivity
QVQLVESGGGLVQAGGSLRLSCAASGRTFRYNTMGWYRQAPGKERELVASISWGGGSTYYADSVKGRFTISRDNAKNTVYLQMNSLKPEDTAVYYCAARRWGQFRFEYWGQGTQVTVSS | high polyreactivity
QVQLVESGGGLVQAGGSLRLSCAASGRTFRYNTMGWYRQAPRKERELFAAISRGGRTYYADSVKGRFTISRDNAKNTVYLQMNSLKPEVTAVDYCAAPAAGDEYDYWGQGTQVTVSS | high polyreactivity
QVQLVESGGGLVQAGGSLRLSCAASGRTFRYYAKGWYRQAPGKERELVAAITVTVTSTFYADSVKGRFTISRDNAKNTVYLQMNSLKPEDTAVYYCAKVDRQSPGQYYYWGQGTQVTVSS | low polyreactivity
QVQLVESGGGLVQAGGSLRLSCAASGRTFRYYAMGWYRPATGKERELVADISSTGRTYYADSVKGRFTISRDNAKNTVYLQMNSLKPEDTAVYYCNADYFFEFDYWGQGTQVTVSS | low polyreactivity
QVQLVESGGGLVQAGGSLRLSCAASGRTFRYYAMGWYRQAPGKERELVAAIDTSSGSTYYADSVKGRFTISRDNAKNTVYLQMNSLKPEDTAVYYCNATWWIPLIYDYWGQGTQVNVSS | low polyreactivity
QVQLVESGGGLVQAGGSLRLSCAASGRTFRYYAMGWYRQAPGKERELVAAINRGGSTYYADSVKGRFTISRDNAKNTVYLQMNSLKPEDTAVYYCNFDKYRIVGFHSPYDYWGQGSQVTVSS | high polyreactivity
QVQLVESGGGLVQAGGSLRLSCAASGRTFRYYAMGWYRQAPGKERELVAAISRRGGSTFYADSVKGRFTISRDNAKNTVYLQMNSLKPEDTAVYYCAAADRYASDTGGYWGQGTQVTVSS | high polyreactivity
QVQLVESGGGLVQAGGSLRLSCAASGRTFRYYAMGWYRQAPGKERELVAAISWSGVRTYYADSVKGRFTISRDNSKNTVYLQMNSLKPEDTAVYYCAKGGYWGQGTQVTVSS | high polyreactivity
QVQLVESGGGLVQAGGSLRLSCAASGRTFRYYAMGWYRQAPGKERELVAAITSGGSTYYADSVKGRFTISRDNAKNTVYLQMNSLKPEDTAVYYCNAFFATGVDYWGQGTQVTVSS | high polyreactivity
